# Measured values taken from article PMC2901993 (Biochemical and biophysical research communications, 2010).
# T1: translin-associated factor x (trax), mouse, N-terminal 6x-His tag (mouse (M. musculus), UniProt Q9QZE7 1-290)
# T1 sequence (looked up): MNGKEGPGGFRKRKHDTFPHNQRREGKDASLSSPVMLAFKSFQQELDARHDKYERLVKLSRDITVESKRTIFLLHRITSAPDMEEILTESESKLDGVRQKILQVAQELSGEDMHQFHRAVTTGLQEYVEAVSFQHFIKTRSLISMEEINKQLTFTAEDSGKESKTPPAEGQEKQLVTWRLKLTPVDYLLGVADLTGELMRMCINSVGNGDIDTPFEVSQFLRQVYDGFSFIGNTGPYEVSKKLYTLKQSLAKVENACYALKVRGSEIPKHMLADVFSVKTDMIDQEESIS
# B1: translin (mouse), co-expressed with trax from pETDuet-1 (natural protein, mouse (M. musculus), UniProt Q62348 1-228, looked up)
# chain: MSVSEIFVELQGFLAAEQDIREEIRKVVQSLEQTAREILTLLQGVHQGTGFQDIPKRCLKAREHFSTVKTHLTSLKTKFPAEQYYRFHEHWRFVLQRLVFLAAFVVYLETETLVTREAVTEILGIEPDREKGFHLDVEDYLSGVLILASELSRLSVNSVTAGDYSRPLHISTFINELDSGFRLLNLKNDSLRKRYDGLKYDVKKVEEVVYDLSIRGFNKETAAACGEK
# Target: T1, translin-associated factor x (trax), …
# Assay: pull-down
binder,measurement,value
B1,stoichiometry N,~1
